{
  "source": "patent US7741066B2",
  "about": "“Phosphorylated p68 RNA helicase as a marker for cancer and cancer metastasis” (priority 2005, dated 2010)",
  "key": {"[1]": {"tested_on": "p68 RNA helicase tyrosine phosphorylation", "experiment": "Tyrosyl phosphorylation of p68 RNA helicase in cancer cells after treatment (immunoprecipitation with PAbp68, Western Blot with p-tyr-100)", "type": "cell-based, human", "text": "After the tissue samples were homogenized, the protein extracts were made from the homogenized sample. The tissue was screened for phosphorylated p68 RNA helicase in two steps. In the first step, the polyclonal antibody PAbp68 was used to isolate p68 RNA helicase from the extracts. In the second step, the antibody p-tyr-100 was used to detect the phosphorylated p68 RNA helicase from the total isolated p68 RNA helicase by the Western Blot. The intensity of the Western Blot signal by the antibody p-tyr-100, in the second step, corresponds to the level of phosphorylated p68 RNA helicase in the sample.\nThe Western Blots were carried out using antibody p68-rgg (top panel in FIG. 3A-3D) and antibody p-tyr-100 (bottom panel in FIGS. 3A-3D). The p68 RNA helicase was immunoprecipitated by antibody PAbp68."}, "[2]": {"tested_on": "p68 RNA helicase threonine phosphorylation", "experiment": "Threonine phosphorylation of p68 RNA helicase in cancer cells after treatment (immunoprecipitation, Western Blot with 14B3)", "type": "cell-based, human", "conditions": "for threonine phosphorylation of p68 RNA helicase upon longer treatment: 30 minutes treatment, data not shown; for threonine phosphorylation of p68 RNA helicase upon treatment: six different cancer cell lines, Western Blot 14B3", "method": "The presence of phosphorylated p68 RNA helicase in cultured cells or tissue samples was examined using immunoprecipitation followed by Western Blots. Immunoblotting also was also performed with a monoclonal antibody against p68 RNA helicase to show the equal amounts or levels of p68 (phosphorylated and unphosphorylated) loaded in the western blotting. Such Western Blots include the use of antibodies to phosphorylated p68 RNA helicase and sodium dodecyl sulphate polyacrylamide gel electrophoresis (SDS-PAGE). Immunoblotting also was performed with a monoclonal antibody against p68 RNA helicase to show the presence of a positive control protein in tumor and normal samples and to indicate that there was no evidence of protein degradation in any of the tissue samples.\nA polyacrylamide gel system was employed for separation of proteins. The cell nuclear extracts (80 μl) were diluted to 200 μl with RIPA buffer (160 mM NaCl, 20 mM Tris-HCl, pH 7.5, 1 mM EDTA, 1 mM EGTA, 1 mM DTT, 0.1% Triton X-100, 1% sodium deoxycholate, 0.1% SDS, 1 mM sodium vanadate, and 1 mM PMSF). The antibody PAbp68 then was added to the mixture. The solution subsequently was incubated at 4° C. for 4 hours. Protein A agarose bead slurry (40 μl) then was added and the mixture underwent rotation. The beads were recovered and washed with 5×600 μl RIPA buffer with 0.08% SDS. The precipitated proteins were analyzed by SDS-PAGE followed by Western Blot.\nThe Western Blot analysis was performed with a commercially available ECL Western Blot and detection kit (Amersham Biosciences). The supernatant from the culture medium of hybridoma cells P68-rgg were used in the blotting experiments at a 5:1 dilution. The polyclonal antibody PAbp68 was used in 1:3000 dilution. The antibodies, PY100 and 14B3 were used with 1:2000 dilution.\nThe phosphorylation of p68 RNA helicase was investigated using HeLA S3, A549, HEL299, CCD-112CoN, HepG2, and MCF-7 cells. The HeLa S3 and A549 cells were grown in Ham's F12K medium supplemented with 10% fetal bovine serum. The HEL299, CCD-112CoN, HepG2, and MCF-7 cells were maintained in minimum essential medium supplemented with 10% fetal bovine serum. The culture medium contained 2 mM L-glutamine and Earle's BSS adjusted to contain 1.5 g/l of sodium bicarbonate, 0.1 mM of non-essential amino acids, and 1.0 mM sodium pyruvate. The Caco-2 cells were grown in a similar medium condition to that of HEL299 cells but supplemented with 20% fetal bovine serum. The RPMI 1788 and K562 cells were grown in Iscove's modified Dulbecco's medium supplemented with 10% fetal bovine serum. The HEK293 and Hs 578Bst cells were grown in modified Dulbecco's medium containing 10% fetal bovine serum. All cell culture medium contained penicillin (100 U/ml) and streptomycin (100 μg/ml). The cells were grown to 90% confluency prior to performing any experiment.\nThe phosphorylations of p68 RNA helicase responded differently to different anticancer treatments.\nFIGS. 2A and 2B show Western Blots of immunoprecipitated cellular p68 RNA helicase from different cancer cells (indicated). The immuno-blots were carried out using antibody p68-rgg (FIG. 2, top panel in A and B), antibody p-tyr-100 (middle panel in A and B), and antibody 14B3 (FIG. 2, bottom panel in A and B). The + and − represent with or without TNF-α or TRAIL treatments. Tyrosine dephosphorylation and threonine phosphorylation of p68 RNA helicase was present in cancer cells upon the panel (A) TNF-α or panel (B) TRAIL treatments."}, "[3]": {"conditions": "six different cancer cell lines (A549, Caco-2, HepG2, K562, MCF-7, HeLa S3), Western Blot p-tyr-100"}},
  "data": [
    {"molecule": "TRAIL: TNF Related Apoptosis-Inducer Ligand", "values": [
      {"measurement": "tyrosine phosphorylation of p68 RNA helicase upon treatment", "setting": "[1]; [3]", "value": "led to the dephosphorylation of p68 at tyrosine residue(s)"},
      {"measurement": "threonine phosphorylation of p68 RNA helicase upon longer treatment", "setting": "[2]", "value": "quickly dephosphorylated again"},
      {"measurement": "threonine phosphorylation of p68 RNA helicase upon treatment", "setting": "[2]", "value": "resulted in phosphorylation of p68 at threonine"}
    ]},
    {"molecule": "COc1cc([C@@H]2c3cc4c(cc3[C@@H](O[C@@H]3O[C@@H]5CO[C@@H](C)O[C@H]5[C@H](O)[C@H]3O)[C@H]3COC(=O)[C@H]23)OCO4)cc(OC)c1O", "note": "[etoposide, reference compound]", "values": [
      {"measurement": "tyrosine phosphorylation of p68 RNA helicase upon treatment", "setting": "[1]; [3]", "value": "tyrosyl dephosphorylation was not observed"},
      {"measurement": "threonine phosphorylation of p68 RNA helicase upon treatment", "setting": "[2]", "value": "Threonine phosphorylation was not detected"}
    ]},
    {"molecule": "TNF-α", "values": [
      {"measurement": "tyrosyl phosphorylation of p68 RNA helicase upon treatment", "setting": "[1]; HeLa cells", "value": "could be dephosphorylated"},
      {"measurement": "tyrosine phosphorylation of p68 RNA helicase upon treatment", "setting": "[1]; [3]", "value": "led to the dephosphorylation of p68 at tyrosine residue(s)"},
      {"measurement": "threonine phosphorylation of p68 RNA helicase upon longer treatment", "setting": "[2]", "value": "quickly dephosphorylated again"},
      {"measurement": "threonine phosphorylation of p68 RNA helicase upon treatment", "setting": "[2]", "value": "resulted in phosphorylation of p68 at threonine"}
    ]},
    {"molecule": "Cc1ccc(NC(=O)c2ccc(CN3CCN(C)CC3)cc2)cc1Nc1nccc(-c2cccnc2)n1", "note": "[STI-571, reference compound]", "values": [
      {"measurement": "tyrosine phosphorylation of p68 RNA helicase upon treatment", "setting": "[1]; MCF-7 breast cancer cells", "value": "decreases in the tyrosine phosphorylation level rather than complete dephosphorylation"}
    ]},
    {"molecule": "CC(=O)O[C@H]1C(=O)[C@@]2(C)[C@H]([C@H](OC(=O)c3ccccc3)[C@]3(O)C[C@H](OC(=O)[C@H](O)[C@@H](NC(=O)c4ccccc4)c4ccccc4)C(C)=C1C3(C)C)[C@]1(OC(C)=O)CO[C@@H]1C[C@@H]2O", "note": "[TAXOL®, reference compound]", "values": [
      {"measurement": "tyrosine phosphorylation of p68 RNA helicase upon treatment", "setting": "[1]; [3]", "value": "tyrosyl dephosphorylation was not observed"},
      {"measurement": "threonine phosphorylation of p68 RNA helicase upon treatment", "setting": "[2]", "value": "Threonine phosphorylation was not detected"}
    ]}
  ]
}
